Experimental data: PMC3218020, “Subtype Differences in Pre-Coupling of Muscarinic Acetylcholine Receptors” (PLoS ONE, 2011)

Columns and labels:
[1] = molecular target: T1, M2 muscarinic acetylcholine receptor (Homo sapiens, UniProt P08172); assay: radioligand binding, CHO membranes; settings: labelled compound; antagonist; […] °C, pH […]
T1 construct: gene CHRM2; full-length receptor stably expressed in CHO cells, crude membranes
T1 sequence (P08172 1-466): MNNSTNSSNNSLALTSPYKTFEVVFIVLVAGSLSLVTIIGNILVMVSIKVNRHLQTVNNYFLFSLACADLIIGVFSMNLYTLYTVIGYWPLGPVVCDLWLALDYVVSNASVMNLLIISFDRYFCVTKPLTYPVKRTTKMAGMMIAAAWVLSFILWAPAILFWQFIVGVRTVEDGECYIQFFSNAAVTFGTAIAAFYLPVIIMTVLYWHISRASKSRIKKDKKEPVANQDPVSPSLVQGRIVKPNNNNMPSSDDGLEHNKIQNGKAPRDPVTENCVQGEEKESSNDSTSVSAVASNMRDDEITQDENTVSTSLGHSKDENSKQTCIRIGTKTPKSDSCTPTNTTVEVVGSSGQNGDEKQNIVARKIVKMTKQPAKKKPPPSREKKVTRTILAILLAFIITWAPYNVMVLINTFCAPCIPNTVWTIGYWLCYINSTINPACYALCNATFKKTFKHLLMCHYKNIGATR

[2] = molecular target: G_(q/11) G-proteins (Chinese hamster (endogenous in CHO))
[3] = molecular target: G_(s/olf) G-proteins (Chinese hamster (endogenous in CHO))
[4] = molecular target: Gi/o G-proteins (Chinese hamster (endogenous in CHO))
[5] = molecular target: G-proteins (Chinese hamster (endogenous in CHO))

Compound | radioligand binding, CHO membranes [1] | EMAX of carbachol-stimulated [35S]GTPγS binding to G (q/11) G-proteins via the receptor (scintillation proximity assay, CHO membranes, carbachol 0.1 µM to 1 mM) (fold increase of basal binding) [2] | EMAX of carbachol-stimulated [35S]GTPγS binding to G (s/olf) G-proteins via the receptor (scintillation proximity assay, CHO membranes, carbachol 0.1 µM to 1 mM) (fold increase of basal binding) [3] | EMAX of carbachol-stimulated [35S]GTPγS binding to Gi/o G-proteins via the receptor (scintillation proximity assay, CHO membranes, carbachol 0.1 µM to 1 mM) (fold increase of basal binding) [4] | fraction of low-affinity sites (f low) for carbachol in competition with 1 nM [3H]NMS, membranes of the newly prepared CHO cell line [5] [percent]
C[N+]1(C)[C@@H]2C[C@@H](OC(=O)[C@H](CO)c3ccccc3)C[C@H]1[C@@H]1O[C@@H]12 [[3H]-N-methylscopolamine] | N-methylscopolamine binding was measured directly in saturation experiments using six concentrations | – | – | – | –
human M1 muscarinic acetylcholine receptor (from UniProt P11229 1-460) | – | 3.9 | 1.92 | 2.01 | –
human M2 muscarinic acetylcholine receptor (from UniProt P08172 1-466) | – | 1.63 | 1.93 | 3.44 | –
human M3 muscarinic acetylcholine receptor (from UniProt P20309 1-590) | – | 3.31 | 2.16 | 2.16 | –
human M4 muscarinic acetylcholine receptor (from UniProt P08173 1-479) | – | 1.59 | 2.18 | 3.15 | –
wild-type human M1 muscarinic receptor (newly prepared CHO cell line) (from UniProt P11229 1-460) | – | – | – | – | 72
